Source: patent US20040170622A1, “Methods and compositions for modulating XBP-1 activity” (President and Fellows of Harvard College, priority 2002, published 2004)

Tests used:
BCL-1 cells = assay: IgM secretion by retrovirally transduced BCL-1 cells (ELISA); format: cell-based
Experimental: Mouse splenocytes or purified B cells (purified mature B cells were isolated from spleen and lymph nodes by magnetic CD43 depletion or B220 magnetic bead selection, Miltenyi Biotech, Auburn Calif.) were plated at 1×10^6 cells/ml in complete media containing RPMI 1640 supplemented with 10% fetal calf serum (FBS)(Hyclone Laboratories), glutamine (2 mM), penicillin (50 units/ml), streptomycin (50 μg/ml), Hepes (100 mM), nonessential amino acids (1×) sodium pyruvate (1 mM) and β-ME (50 μM) and stimulated with anti-CD40(1 μg/ml)(Pharmigen) or LPS (20 μg/ml)(Sigma). Cytokines (R&D Systems, Minneapolis, Minn.) were used at IL-4 (20 ng/ml), IL-2 (20 ng/ml), Il-5 (20 ng/ml), IL-6 (20 ng/ml ), IL-10 (20 ng/ml ) and IL-13 (20 ng/ml). Stimulated B cells were split to a cell concentration of 1×10^6 cells/ml with fresh media every 24 h. The BCL1 (CWS13.20-3B3 ATCC CRL 1699) cell line was cultured in RPMI media supplemented with 10% FBS, gentamicin (20 μg/ml), and β-ME (50 μM). To induce differentiation cells were plated at 2×10^5 cells/ml and treated with recombinant mouse IL-2 and IL-5 (20 ng/ml) (R&D systems).
(§1) Assays to measure immunoglobulin or cytokine levels in culture supernatants were performed as described (e.g., Hodge et al., 1996 Immunity. 4:397-405 or Science. 1996 274:1903-5).
The XBP-1 cDNAs for the unspliced (XBP-1u/s) and the spliced (XBP-1s) forms were PCR-amplified from the total RNA of untreated and tunicamycin treated NIH3T3 cells, respectively, with a primer set (5′-[…]-3′ (SEQ ID NO: 7) and 5′-[…]-3′) (SEQ ID NO: 8). XBP-1u form was generated by a PCR-based mutagenesis from XBP-unspliced/s cDNA so that the two G residues at position 532 and 535 were changed to A without changing amino acid sequences in the XBP-1u open reading frame. Numbers are based on the sequences from gene bank database (NM_013842 [gi:13775155]). These XBP-1 cDNAs were inserted into the GFP-RV retroviral vector by using blunt end ligation (Sambrook et al., 1989). EFFECTENE transfection (Quiagen) was used to introduce the DNA into the Phoenix cell line as described by manufacturer (e.g., Reimold et al., 2001 Nature. 412:300-7 or Int Immunol. 2001 13:241-8). Viral supernatants were harvested after 48 hours and frozen at −80° C. for later use. B cells were purified from mouse spleens using CD43 depletion or positive selection with B220+ magnetic beads as described by the manufacturer (MidiMacs, Miltenyi Biotech). B cell purity was generally near 95% as confirmed by flow cytometry. The B cells (10^6 cells /ml) were then activated in culture with LPS 10 μg/ml and F (ab′)2 anti-IgM (5 μg/ml Southern Biotechnology Associates Inc.) for 24 hours. […]

IL-6 = IL-6 production by retrovirally transduced wt and XBP-1-/- B cells (ELISA, Northern blot); format: cell-based, murine; details: for secretion of IL-6 compared to control cells: LPS 72 h
Experimental: as §1
The XBP-1 cDNAs for the unspliced (XBP-1u/s) and the spliced (XBP-1s) forms were PCR-amplified from the total RNA of untreated and tunicamycin treated NIH3T3 cells, respectively, with a primer set (5′-[…]-3′ (SEQ ID NO: 7) and 5′-[…]-3′) (SEQ ID NO: 8). XBP-1u form was generated by a PCR-based mutagenesis from XBP-unspliced/s cDNA so that the two G residues at position 532 and 535 were changed to A without changing amino acid sequences in the XBP-1u open reading frame. Numbers are based on the sequences from gene bank database (NM_013842 [gi:13775155]). These XBP-1 cDNAs were inserted into the GFP-RV retroviral vector by using blunt end ligation (Sambrook et al., 1989). EFFECTENE transfection (Quiagen) was used to introduce the DNA into the Phoenix cell line as described by manufacturer (e.g., Reimold et al., 2001 Nature. 412:300-7 or Int Immunol. 2001 13:241-8). Viral supernatants were harvested after 48 hours and frozen at −80° C. for later use. B cells were purified from mouse spleens using CD43 depletion or positive selection with B220+ magnetic beads as described by the manufacturer (MidiMacs, Miltenyi Biotech). B cell purity was generally near 95% as confirmed by flow cytometry. The B cells (10^6 cells /ml) were then activated in culture with LPS 10 μg/ml and F (ab′)2 anti-IgM (5 μg/ml Southern Biotechnology Associates Inc.) for 24 hours. The 1 ml of activated B cells (10^6 cells/ml) were mixed with 4 μg of polybrene and 1 ml of virus-containing supernatant and spun at 1000 g for 45 minutes at 24° C. Cells were incubated for 24-36 h at 37° C. and then GFP+ cells were flow sorted and returned to culture with and without stimulation.
In human multiple myeloma cells, XBP-1 was induced by IL-6 treatment and implicated in the proliferation of malignant plasma cells (Wen et al., 1999). However, no role for IL-6 in upregulating XBP-1 transcripts or in mediating splicing of XBP-1 RNA in mature B cells has been described (FIG. 6A). The ability of XBP-1 to induce IL-6 production in wt and XBP-1^−/− primary B cells was tested. As described above, in vitro activated murine splenic B cells were transduced using retroviruses expressing bicistronic mRNA for XBP-1u/s, XBP-1s, XBP-1u and control GFP. After cell sorting, GFP^+ cells were stimulated with LPS and assayed for cytokine production after 72 h. In FIG. 6 panel (A) purified B cells from wt and XBP-1^−/− mice were activated in culture with LPS 10 μg/ml and F(ab′)2 anti-IgM (5 μg/ml ) for 24 hours. Retroviral transduction with GFP alone (GFP-Rv), XBP-1u/s (XBP-1 u/s GFP Rv), XBP-1s (XBP-1s GFP Rv) or XBP-1u (XBP-1u GFP Rv) of activated B cells was performed. Cells were incubated for 24-36 h at 37° C. and then GFP+ cells were flow sorted and then returned to culture with LPS stimulation (10 μg/ml) for 72 h. Cytokine production was analyzed by ELISA from culture supernatants of stimulated B cells. Experiments were done at least three times and standard deviation is shown. In panel (B) Total RNAs were prepared from stimulated B cells above and XBP-1 mRNA levels were determined by Northern blot analysis with γ-actin control

B1: XBP-1s: vector encoding only the spliced form of murine XBP-1, a protein of 371 aa (protein)
chain: MVVVAAAPSAATAAPKVLLLSGQPASGGRALPLMVPGPRAAGSEASGTPQARKRQRLTHLSPEEKALRRKLKNRVAAQTARDRKKARMSELEQQVVDLEEENHKLQLENQLLREKTHGLVVENQELRTRLGMDTLDPDEVPEVEAKGSGVRLVAGSAESAAGAGPVVTSPEHLPMDSDTVASSDSESDILLGILDKLDPVMFFKCPSPESASLEELPEVYPEGPSSLPASLSLSVGTSSAKLEAINELIRFDHVYTKPLVLEIPSETESQTNVVVKIEEAPLSSSEEDHPEFIVSVKKEPLEDDFIPELGISNLLSSSHCLRPPSCLLDAHSDCGYEGSPSPFSDMSSPLGTDHSWEDTFANELFPQLISV
IgM secretion compared to vector alone controls (BCL-1 cells; GFP positive BCL-1 cells treated with IL-2 and IL-5 for 3 days): approximately fourfold
Ig secretion (BCL-1 cells; GFP positive BCL-1 cells untreated with cytokine): neither XBP-1u/s nor XBP-1s forms were able to induce Ig secretion
secretion of IL-6 compared to control cells (IL-6; XBP-1-/- B cells): seven fold
increase in IL-6 gene expression compared to controls (Northern blot) (IL-6; XBP-1s transduced cells): ~5 fold
secretion of IL-6 compared to control cells (IL-6; wild type B cells): approximately ten-fold
